These results are taken from patent US20170015742A1 (published 2017).

The target of assay [1] is T1, Human PDGF-BB (human, UniProt P01127 82-190).
T1 construct: Recombinant human PDGF-BB, a dimer of two B chains; also called huPDGF-BB; hPDGF-BB
Put plainly: Biacore SPR (Example 1.1); second of two rows for this clone. The method, then: (§1) Unreacted moieties on the biosensor surface were blocked with ethanolamine. For kinetic analysis, rate equations derived from the 1:1 Langmuir binding model were fitted simultaneously to multiple antigen injections (using global fit analysis) with the use of Scrubber 2 (BioLogic Software), Biacore Biaevaluation 4.0.1 software or Biacore T100 Evaluation software. Purified antibodies or DVD-Ig molecules were diluted in running buffer for capture across goat anti-human Fc reaction surfaces. Antibodies or DVD-Ig molecules to be captured as a ligand (1 μg/ml) were injected over reaction matrices at a flow rate of 10 μl/minute. During the assay, all measurements were referenced against the capture surface alone (i.e., with no captured antibody or DVD-Ig molecule). […] The equilibrium dissociation constant KD (M) of the reaction between antibodies and the target antigen was then calculated from the kinetic rate constants by the following formula: KD=Koff/Kₒₙ. Binding was recorded as a function of time and kinetic rate constants were calculated. In this assay, on-rates as fast as 10⁶M⁻¹s⁻¹ and off-rates as slow as 10⁻⁶ s⁻¹ could be measured.

Assay [2] has as its target T1, Human PDGF-BB. Put plainly: Biacore SPR (Example 1.1); first of two rows for this clone. How it is done: as §1
Background: Surface plasmon resonance follows binding to a sensor surface in real time, without labels.

For assay [3], the target named is T1, Human PDGF-BB. Put plainly: competition ELISA: huPDGF-BB-biotin binding to coated huPDGF-Rβ-Fc (Example 1.13). The method, then: (§2) Plates were then washed four times with wash buffer (TBS, 0.05% Tween-20) and blocked with Superblock blocking buffer (Thermo Scientific, cat#37535). During the blocking step, supernatants, antibodies, benchmark compounds or DVD-Ig were diluted in assay diluent (10% Superblock containing 0.05% surfactamps) and an eight point titration of each sample molecule was performed. […] Following incubation, plates were washed four times with wash buffer. Detection reagent Streptavidin-polyHRP-40 (Fitzgerald, cat#65r-s104phrp) was diluted in assay diluent and added to plates (50 μL) for 45 minutes at 25° C. with shaking. Plates were washed four times with wash buffer and developed with the addition of Enhanced K-blue TMB substrate (Neogen, cat#308177). The reaction was stopped with 2N sulfuric acid (VWR, cat# BDH3500-1) and the absorbance was read at 450 nm-570 nm. […] Data was analyzed using Softmax Pro 4.8 software and IC₅₀ values calculated using a sigmoidal dose response (variable slope) fit in GraphPad Prism 5.

Assay [4] deals with T1, Human PDGF-BB. Put plainly: Biacore SPR (Example 1.1). How it is done:
as §1

Assay [5] addresses T1, Human PDGF-BB. Put plainly: cell-based or functional assay.
In assay [6] the target is T2, recombinant human VEGF165 (human, UniProt P15692 207-395).
T2 construct: also called hVEGF165; huVEGF-A165
Put plainly: competition ELISA: DVD-Ig titrated against biotinylated hVEGF165 binding to coated hVEGFR2-Fc. The method, then: To identify molecules that could block the binding of hVEGF₁₆₅ to the hVEGF-R2 (KDR/Flk-1) receptor, a competition ELISA was performed. […] Plates were then washed four times with wash buffer (TBS, 0.05% Tween-20) and blocked with Superblock blocking buffer (Thermo Scientific, cat#37535). […] The pre-incubated sample/hVEGF₁₆₅ complex was added to the coated plate at 50 μL in duplicate and incubated for 30 minutes at 25° C. with shaking. Following incubation, plates were washed four times with wash buffer. Streptavidin-polyHRP-40 (Fitzgerald cal#65r-s104phrp) was diluted in assay diluent (10% Superblock containing 0.05% surfactamps) and added to plates (50 μL) for 45 minutes at 25° C. with shaking. Plates were washed four times with wash buffer and developed with the addition of Enhanced K-blue TMB substrate (Neogen cat#308177). The reaction was stopped with 2N sulfuric acid (VWR, cat# BDH3500-1) and the absorbance was read at 450 nm-570 nm. A decrease in observed optical density indicates the test molecule is blocking the hVEGF₁₆₅ binding to the hVEGF-R2-Fc. Data was analyzed using Softmax Pro 4.8 software and IC₅₀ values calculated using a sigmoidal dose response (variable slope) fit in GraphPad Prism 5.
(ELISA stands for enzyme-linked immunosorbent assay.)

For assay [7], the target named is T2, recombinant human VEGF165. Put plainly: cell-based or functional assay.
The target of assay [8] is T3, recombinant human PDGF-BB (human, UniProt P01127 82-190). Put plainly: cell-based or functional assay.
For assay [9], the target named is T3, recombinant human PDGF-BB. Put plainly: competition ELISA: DVD-Ig titrated against biotinylated hPDGF-BB binding to coated hPDGF-Rbeta-Fc. How it is done:
as §2

The target of assay [10] is T1, Human PDGF-BB. Put plainly: Biacore SPR (Example 1.1); footnote **: heterogeneous off-rate. How it is done: as §1

T1 sequence (P01127 82-190 limits assumed): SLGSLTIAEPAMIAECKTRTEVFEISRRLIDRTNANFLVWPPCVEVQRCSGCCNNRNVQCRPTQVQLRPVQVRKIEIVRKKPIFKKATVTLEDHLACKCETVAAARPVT

B1: BDI-9E8-E7 (antibody, V domains shown)
VH: QVTLKESGPGILQPSQTLSLTCTFSGFSLSTYGMGVGWIRQPSGKGLEWLANIWWDDDKYYNPSLKNRLTISKDTSNNQAFLKITNVDTADTATYYCARIESIGTTYSFDYWGQGVMVTVSS
VL: QFTLTQPKSVSGSLRSTITIPCERSSGDIGDSYVSWYQQHLGRPPINVIYADDQRPSEVSDRFSGSIDSSSNSASLTITNLQMDDEADYFCQSYDINIDIVFGGGTKLTVL
One may read the Kd as the equilibrium constant for the complex coming apart. Broadly, the kon is the second-order rate constant of association. A high value points to faster complex formation. In the assay with Human PDGF-BB [1], B1 registered a Kd of no more than 0.1 pM and a kon of no less than 1e+07 M⁻¹ s⁻¹. For the same molecule, in the assay with Human PDGF-BB [2], the Kd was no more than 0.058 pM and the kon is no less than 1.7e+07 M⁻¹ s⁻¹.

B2: BFU-3E2-B9-B8 (antibody, V domains shown)
VH: EVQLQQSGPELQRPGASVKLSCKASGYTFTESYMYWVKQRPEQSLELIGRIDPEDGSTDYVEKFKNKATLTADTSSNTAYMQLSSLTSEDSATYFCARFGARSYFYPMDAWGQGTSVTVSS
VL: DTVLTQPPALAVSPGERVSISCRASESVSTLMHWYQQKPGQQPRLLIYGASNLESGVPARFSGSGSGTDFTLTIDPVEADDTATYFCQQSWNDPWTFGGGTKLELK
As usually defined, the IC50 is the concentration at which inhibition is half-maximal. On to B2, for which the IC50 with Human PDGF-BB [3] is greater than 50 nM. In addition, in the assay with Human PDGF-BB [4], the Kd was no more than 0.15 pM and the kon is no less than 1e+07 M⁻¹ s⁻¹. Moreover, in the assay with Human PDGF-BB [5], the “Phospho-Tyr751/hPDGF-BB Neutralization” value was found to be 0.642 nM and the “huPDGF-BB Neutralization Potency (nM) in NIH-3T3 Cells” value was determined as 0.247 nM.

B3: BFU-11A8-D6-C3 (antibody, V domains shown)
VH: EVQLQQSGPELQRPGASVKLSCKASGYTFTESYIYWVKQRPEQSLELIGRIDPEDGSTDYVEKFKNKATLTADTSSNTAYMQLSSLTSEDTATYFCARFGARSYFYPMDAWGQGTSVTVSS
VL: DTVLTQSPTLAVSPGERVSIPCRASESVSTLMHWYQQKPGQQPRLLIYGASNLESGVPARFSGSGSGTDFTLTIDPVEADDTATYFCQQSWNDPWTFGGGTKLELK
B3 gave an IC50 with Human PDGF-BB [3] of 7.09 nM. Besides, in the assay with Human PDGF-BB [4], the Kd is no more than 0.047 pM and the kon came to 2.1e+07 M⁻¹ s⁻¹. Further, in the assay with Human PDGF-BB [5], the “Phospho-Tyr751/hPDGF-BB Neutralization” value came out at 0.736 nM and the “huPDGF-BB Neutralization Potency (nM) in NIH-3T3 Cells” value turned out to be 0.344 nM.

B4: 4G8.3-SL-9E8.4 (g) DVD-Ig (PR-1572105) (bispecific antibody, human IgG1, kappa, L234A L235A)
heavy: EVQLVQSGSELKKPGASVKVSCKASGYTFTNYGMYWVRQAPGQGLEWMGWINTETGKPTYADDFKGRFVFSLDTSVSTAYLQISSLKAEDTAVYYCARTNYYYRSYIFYFDYWGQGTMVTVSSASTKGPEVTLRESGPALVKPTQTLTLTCTFSGFSLSTYGMGVGWIRQPPGKALEWLANIWWDDDKYYNPSLKNRLTISKDTSKNQVVLTMTNMDPVDTATYYCARIESIGTTYSFDYWGQGTMVTVSSASTKGPSVFPLAPSSKSTSGGTAALGCLVKDYFPEPVTVSWNSGALTSGVHTFPAVLQSSGLYSLSSVVTVPSSSLGTQTYICNVNHKPSNTKVDKKVEPKSCDKTHTCPPCPAPEAAGGPSVFLFPPKPKDTLMISRTPEVTCVVVDVSHEDPEVKFNWYVDGVEVHNAKTKPREEQYNSTYRVVSVLTVLHQDWLNGKEYKCKVSNKALPAPIEKTISKAKGQPREPQVYTLPPSREEMTKNQVSLTCLVKGFYPSDIAVEWESNGQPENNYKTTPPVLDSDGSFFLYSKLTVDKSRWQQGNVFSCSVMHEALHNAYTQKSLSLSPGK
light: DTVLTQSPATLSLSPGERATLSCRASESVSTHMHWYQQKPGQAPRLLIYGASNLESGVPARFSGSGSGTDFTLTISSLEPEDFAVYFCQQSWNDPFTFGQGTKLEIKRTVAAPSVFIFPPEFVLTQSPGTLSLSPGERATLSCERSSGDIGDSYVSWYQQKPGQAPRLVIYADDQRPSGIPDRFSGSGSGTDFTLTISRLEPEDFAVYYCQSYDINIDIVFGGGTKVEIKRTVAAPSVFIFPPSDEQLKSGTASVVCLLNNFYPREAKVQWKVDNALQSGNSQESVTEQDSKDSTYSLSSTLTLSKADYEKHKVYACEVTHQGLSSPVTKSFNRGEC
notes: DVD-Ig, outer hBDB-4G8.3 (VEGF), inner hBDI-9E8.4 (PDGF); IgG1 L234A, L235A, H435A / kappa; also called DVD-Ig-3
In the case of B4, the values for the IC50 in [6] and in assay [9] were 0.111 nM and greater than 5 nM, respectively. The “HMVEC-d hVEGF165 Potency IC50” value in assay [7] was determined as 0.347 nM. Besides, in [8], the “NIH-3T3 hPDGF-BB Potency IC50” value was 0.29 nM.

B5: BDI-1E1-D5 (antibody, V domains shown)
VH: EVKLQQSGDELVRPGASVKMSCKASGYTFTDYVMHWVKQSPGQGLEWIGTIIPLIDTTSYNQKFKGKATLTADKSSNTAYMELSRLTSEDSAVYYCARTSPYYYSSYDVMDAWGQGASVTVSS
VL: NIQLTQSPSLLSASVGDRVTLSCKGSQNINNYLAWYQQKLGEAPKLLIYKTNNLQTGIPSRFSGCGSGTDYTLTISSLHSEDLATYYCYQYDNGYTFGAGTKLELK
Take B5: in the assay with Human PDGF-BB [4], the kon is no less than 1e+07 M⁻¹ s⁻¹. The Kd with Human PDGF-BB [10] is no more than 0.037 nM.

B6: BDI-6A3-A9 (antibody, V domains shown)
VH: EVQLVESGGGLVQPGRSLKFSCAASGFSFSDSAMAWVRQAPKKGLEWVATIIYDGSGTYYRDSVKGRFTISRDNAKSTLYLQMDSLRSEDTATYYCARLGFNYGNYGYYVMDAWGQGASVTVSS
VL: QFTLTQPKSVSGSLRNTITIPCERSSGDIGDSYVSWYQQHLGRPPINVIFADDQRPSEVSDRFSGSIDSSSNSASLTITNLQMDDEADYFCQSYDSNIDINIVFGGGTKLTVL
In turn, B6 registered a kon in the assay with Human PDGF-BB [4] of no less than 1e+07 M⁻¹ s⁻¹. The same molecule gave a Kd with Human PDGF-BB [10] of no more than 0.67 nM.

B7: 4G8.3-GS(9)-9E8.4 (g) DVD-Ig (PR-1572102) (bispecific antibody, human IgG1, kappa, L234A L235A)
heavy: EVQLVQSGSELKKPGASVKVSCKASGYTFTNYGMYWVRQAPGQGLEWMGWINTETGKPTYADDFKGRFVFSLDTSVSTAYLQISSLKAEDTAVYYCARTNYYYRSYIFYFDYWGQGTMVTVSSGGGGSGGGGSEVTLRESGPALVKPTQTLTLTCTFSGFSLSTYGMGVGWIRQPPGKALEWLANIWWDDDKYYNPSLKNRLTISKDTSKNQVVLTMTNMDPVDTATYYCARIESIGTTYSFDYWGQGTMVTVSSASTKGPSVFPLAPSSKSTSGGTAALGCLVKDYFPEPVTVSWNSGALTSGVHTFPAVLQSSGLYSLSSVVTVPSSSLGTQTYICNVNHKPSNTKVDKKVEPKSCDKTHTCPPCPAPEAAGGPSVFLFPPKPKDTLMISRTPEVTCVVVDVSHEDPEVKFNWYVDGVEVHNAKTKPREEQYNSTYRVVSVLTVLHQDWLNGKEYKCKVSNKALPAPIEKTISKAKGQPREPQVYTLPPSREEMTKNQVSLTCLVKGFYPSDIAVEWESNGQPENNYKTTPPVLDSDGSFFLYSKLTVDKSRWQQGNVFSCSVMHEALHNAYTQKSLSLSPGK
light: DTVLTQSPATLSLSPGERATLSCRASESVSTHMHWYQQKPGQAPRLLIYGASNLESGVPARFSGSGSGTDFTLTISSLEPEDFAVYFCQQSWNDPFTFGQGTKLEIKRGGSGGGGSGEFVLTQSPGTLSLSPGERATLSCERSSGDIGDSYVSWYQQKPGQAPRLVIYADDQRPSGIPDRFSGSGSGTDFTLTISRLEPEDFAVYYCQSYDINIDIVFGGGTKVEIKRTVAAPSVFIFPPSDEQLKSGTASVVCLLNNFYPREAKVQWKVDNALQSGNSQESVTEQDSKDSTYSLSSTLTLSKADYEKHKVYACEVTHQGLSSPVTKSFNRGEC
notes: DVD-Ig, outer hBDB-4G8.3 (VEGF), inner hBDI-9E8.4 (PDGF); IgG1 L234A, L235A, H435A / kappa; also called 4G8.3-GS-9E8.4 (g); DVD-Ig-1
As for B7, the results for the IC50 in [6] and in [9] were 0.157 nM and greater than 5 nM, respectively. Besides, the “HMVEC-d hVEGF165 Potency IC50” value in assay [7] was found to be 0.417 nM. Also, in [8], the “NIH-3T3 hPDGF-BB Potency IC50” value came to 0.528 nM.
